Measurements taken from the supplement of paper PMC7877785.
± gives the uncertainty stated by the source.

Assay: self-splicing fitness, log relative to wild type (ln ratio); higher = more splicing; Tetrahymena group I intron in knt gene, E. coli kanamycin selection, DiMSum; sequences stand for … in CUCUCU…GGAGGGAAAAGUUAUCAGGCAUGCACCUGGUAGCUAGUCUUUAAACCAAUAGAUUGCAUCGGUUUAAAAGGCAAGACCGUCAAAUUGCGGGAAAGGGGUCAACAGCCGUUCAGUACCAAGUCUCAGGGGAAACUUUGAGAUGGCCUUGCAAAGGGUAUGGUAAUAAGCUGACGGACAUGGUCCUAACCACGCAGCCAAGUCCUAAGUCAACAGAUCUUCUGUUGAUAUGGAUGCAGUUCACAGACUAAAUGUCGGUCGGGGAAGAUGUAUUCUUCUCAUAAGAUAUAGUCGGACCUCUCCUUAAUGGGAGCUAGCGGAUGAAGUGAUGCAACACUGGAGCCGCUGGGAACUAAUUUGUAUGCGAAAGUAUAUUGAUUAGUUUUGGAGUACUCGUGGUCG
In short: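 Six replicate transformations of E. coli BL21(DE3) with a pET-22b(+) library were grown overnight at 37°C or 30°C. The library randomised all eight P1ex-region intron nucleotides, the intron lying in the knt kanamycin-resistance gene, and plates were LB agar with or without 25 μg/mL kanamycin plus 100 μg/mL carbenicillin, 50 μM IPTG and 0.2% rhamnose. Pooled colonies were amplicon-sequenced on an Illumina HiSeq 2500, and fitness is the DiMSum error-weighted combination of wild-type-normalised replicate fold changes, kanamycin versus none.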

| Sequence | self-splicing fitness (ln) (30 °C) | self-splicing fitness (ln) (37 °C) |
| --- | --- | --- |
| GCGAAGCAAUAUUACGUCAU | -2.72 ± 0.15 | -1.65 ± 0.14 |
| GCGAAGCAAUAUUACGUCCU | -0.0766 ± 0.14 | 0.569 ± 0.17 |
| GCGAAGCAAUAUUACGUUAU | -2.2 ± 0.1 | -1.86 ± 0.11 |
| GCGCAGCAAUAUUACGAAAA | -1.92 ± 0.21 | -1.7 ± 0.21 |
| GCGCAGCAAUAUUACGAAUG | -1.52 ± 0.13 | -0.961 ± 0.14 |
| GCGCAGCAAUAUUACGAGGU | -2.49 ± 0.2 | -1.24 ± 0.25 |
| GCGCAGCAAUAUUACGAUGC | -2.63 ± 0.17 | -0.824 ± 0.17 |
| GCGCAGCAAUAUUACGAUUG | -2.57 ± 0.073 | -1.28 ± 0.1 |
| GCGCAGCAAUAUUACGCAAC | -1.79 ± 0.14 | -0.576 ± 0.18 |
| GCGCAGCAAUAUUACGCCGC | -2.28 ± 0.35 | -1.44 ± 0.49 |
| GCGCAGCAAUAUUACGCCGG | -2.75 ± 0.25 | -1.57 ± 0.31 |
| GCGCAGCAAUAUUACGCGAU | – | -2.14 ± 0.3 |
| GCGCAGCAAUAUUACGCGGU | -3.82 ± 0.28 | -2.25 ± 0.22 |
| GCGCAGCAAUAUUACGGACC | -1.03 ± 0.24 | 0.344 ± 0.38 |
| GCGCAGCAAUAUUACGGCGG | -2.48 ± 0.13 | -1.28 ± 0.15 |
| GCGCAGCAAUAUUACGGGAU | -1.66 ± 0.1 | -1.09 ± 0.12 |
| GCGCAGCAAUAUUACGUCAG | -2.03 ± 0.14 | -2.23 ± 0.18 |
| GCGCAGCAAUAUUACGUCAU | -1.65 ± 0.084 | -0.91 ± 0.086 |
| GCGCAGCAAUAUUACGUGGA | -1.48 ± 0.098 | -0.745 ± 0.098 |
| GCGCAGCAAUAUUACGUUUA | -1.01 ± 0.1 | -0.423 ± 0.1 |
| GCGGAGCAAUAUUACGAAAC | -3.16 ± 0.31 | -0.996 ± 0.24 |
| GCGGAGCAAUAUUACGAAAU | -2.94 ± 0.5 | -1.23 ± 0.42 |
| GCGGAGCAAUAUUACGACAA | -1.13 ± 0.23 | -1.7 ± 0.29 |
| GCGGAGCAAUAUUACGAGGU | -4.1 ± 0.46 | – |
| GCGGAGCAAUAUUACGAUAC | -1.78 ± 0.18 | -2.35 ± 0.33 |
| GCGGAGCAAUAUUACGAUCU | -1.97 ± 0.25 | -0.0473 ± 0.33 |

| Sequence | self-splicing fitness (ln) (30 °C) | self-splicing fitness (ln) (37 °C) |
| --- | --- | --- |
| GCGGAGCAAUAUUACGAUGA | -3.1 ± 0.23 | -2.23 ± 0.26 |
| GCGGAGCAAUAUUACGAUGU | -2.73 ± 0.26 | -1.02 ± 0.22 |
| GCGGAGCAAUAUUACGAUUU | -2.22 ± 0.14 | -0.641 ± 0.14 |
| GCGGAGCAAUAUUACGCAUG | – | -2.8 ± 0.44 |
| GCGGAGCAAUAUUACGCCAG | -2.22 ± 0.42 | -2.26 ± 0.42 |
| GCGGAGCAAUAUUACGCCCG | -1.19 ± 0.5 | – |
| GCGGAGCAAUAUUACGCGAU | -2.58 ± 0.33 | -2.18 ± 0.36 |
| GCGGAGCAAUAUUACGCGGG | -3.35 ± 0.38 | -1.2 ± 0.24 |
| GCGGAGCAAUAUUACGGAGU | -2.51 ± 0.33 | -2.1 ± 0.29 |
| GCGGAGCAAUAUUACGGCGG | -3.3 ± 0.3 | -2.6 ± 0.32 |
| GCGGAGCAAUAUUACGGGGC | -2.48 ± 0.48 | -1.65 ± 0.35 |
| GCGGAGCAAUAUUACGGGUG | – | -1.36 ± 0.34 |
| GCGGAGCAAUAUUACGGUAC | – | -2.04 ± 0.36 |
| GCGGAGCAAUAUUACGGUCA | -2.75 ± 0.17 | -1.04 ± 0.13 |
| GCGGAGCAAUAUUACGGUUG | -3.64 ± 0.2 | -1.78 ± 0.18 |
| GCGGAGCAAUAUUACGUAAA | -3.53 ± 0.31 | -1.97 ± 0.35 |
| GCGGAGCAAUAUUACGUAGA | -3.84 ± 0.43 | -2.24 ± 0.35 |
| GCGGAGCAAUAUUACGUGCG | -3.79 ± 0.35 | -2.55 ± 0.27 |
| GCGUAGCAAUAUUACGAACA | -0.46 ± 0.22 | -0.256 ± 0.24 |
| GCGUAGCAAUAUUACGAAUA | -0.7 ± 0.12 | -1.13 ± 0.11 |
| GCGUAGCAAUAUUACGACAU | -0.276 ± 0.014 | -0.025 ± 0.033 |
| GCGUAGCAAUAUUACGAGGA | -1.09 ± 0.42 | – |
| GCGUAGCAAUAUUACGAUAU | -0.111 ± 0.081 | -0.357 ± 0.1 |
| GCGUAGCAAUAUUACGAUGG | -1.91 ± 0.17 | -2.82 ± 0.31 |
| GCGUAGCAAUAUUACGCAUA | -3.49 ± 0.2 | -2.17 ± 0.21 |
| GCGUAGCAAUAUUACGCGCC | -2.51 ± 0.35 | -1.51 ± 0.45 |

| Sequence | self-splicing fitness (ln) (30 °C) | self-splicing fitness (ln) (37 °C) |
| --- | --- | --- |
| GCGUAGCAAUAUUACGCGUA | -2.83 ± 0.46 | -2.3 ± 0.37 |
| GCGUAGCAAUAUUACGCUUG | – | -2.26 ± 0.33 |
| GCGUAGCAAUAUUACGGAAU | -2.67 ± 0.33 | -0.8 ± 0.2 |
| GCGUAGCAAUAUUACGGCUC | 0.371 ± 0.11 | 0.776 ± 0.12 |
| GCGUAGCAAUAUUACGGCUG | -3.74 ± 0.42 | -1.39 ± 0.49 |
| GCGUAGCAAUAUUACGGGAC | -2.1 ± 0.15 | -2.17 ± 0.2 |
| GCGUAGCAAUAUUACGGGCC | -3.1 ± 0.32 | – |
| GCGUAGCAAUAUUACGGGGC | -3.47 ± 0.21 | -2.67 ± 0.24 |
| GCGUAGCAAUAUUACGGGGG | -3.87 ± 0.21 | -1.78 ± 0.17 |
| GCGUAGCAAUAUUACGGGUG | -1.55 ± 0.08 | -1.46 ± 0.091 |
| GCGUAGCAAUAUUACGGUAA | -1.02 ± 0.13 | -0.178 ± 0.1 |
| GCGUAGCAAUAUUACGUAAA | -0.977 ± 0.21 | -1.1 ± 0.25 |
| GCGUAGCAAUAUUACGUACG | -3.93 ± 0.18 | -2.88 ± 0.17 |
| GCGUAGCAAUAUUACGUCUC | – | -2.6 ± 0.39 |
| GCGUAGCAAUAUUACGUGUG | -4.47 ± 0.42 | -2.77 ± 0.2 |
| GCGUAGCAAUAUUACGUGUU | -3.07 ± 0.21 | -0.761 ± 0.12 |
| GCGUAGCAAUAUUACGUUAG | -3.92 ± 0.22 | -2.47 ± 0.23 |
| GCGUAGCAAUAUUACGUUCG | -1.48 ± 0.33 | -1.52 ± 0.32 |
| GCUAAGCAAUAUUACGAACA | -1.65 ± 0.2 | -0.907 ± 0.27 |
| GCUAAGCAAUAUUACGAAUA | -2.16 ± 0.21 | -1.73 ± 0.24 |
| GCUAAGCAAUAUUACGACCA | -2.09 ± 0.21 | -1.34 ± 0.26 |
| GCUAAGCAAUAUUACGAGAA | -0.77 ± 0.47 | -1.64 ± 0.31 |
| GCUAAGCAAUAUUACGAGAC | -2.13 ± 0.13 | -0.763 ± 0.14 |
| GCUAAGCAAUAUUACGAUUA | -1.63 ± 0.22 | -0.39 ± 0.18 |
| GCUAAGCAAUAUUACGCACC | -0.869 ± 0.11 | 0.0219 ± 0.14 |
| GCUAAGCAAUAUUACGCAGG | -2.8 ± 0.26 | -3.55 ± 0.39 |
